# Measured values reported in US20090181041A1 (published 2009).
# T1: DC-SIGN/Fc chimera (human, UniProt Q9NNX6 62-404)
# T1 construct: Amine-coupled to a CM5 chip at 8312 RU; also called CD209; dendritic cell-specific ICAM-3-grabbing nonintegrin; Fc part of the bought chimera not given
# T1 sequence (looked up): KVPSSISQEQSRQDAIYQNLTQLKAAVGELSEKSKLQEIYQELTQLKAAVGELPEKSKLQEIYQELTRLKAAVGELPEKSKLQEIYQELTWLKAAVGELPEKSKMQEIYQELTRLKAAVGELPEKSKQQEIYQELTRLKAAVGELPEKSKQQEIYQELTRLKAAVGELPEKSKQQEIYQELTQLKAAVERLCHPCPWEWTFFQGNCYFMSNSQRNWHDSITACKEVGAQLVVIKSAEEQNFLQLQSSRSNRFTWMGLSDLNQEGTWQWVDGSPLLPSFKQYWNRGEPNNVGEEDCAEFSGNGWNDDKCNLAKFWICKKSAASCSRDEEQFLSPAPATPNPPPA
# T2: Recombinant human macrophage mannose receptor (MMR) (human, UniProt P22897 19-1383, limits assumed)
# T2 construct: Bought; Amine-coupled to a CM5 chip at 13745 RU; also called CD206
# T2 sequence (looked up): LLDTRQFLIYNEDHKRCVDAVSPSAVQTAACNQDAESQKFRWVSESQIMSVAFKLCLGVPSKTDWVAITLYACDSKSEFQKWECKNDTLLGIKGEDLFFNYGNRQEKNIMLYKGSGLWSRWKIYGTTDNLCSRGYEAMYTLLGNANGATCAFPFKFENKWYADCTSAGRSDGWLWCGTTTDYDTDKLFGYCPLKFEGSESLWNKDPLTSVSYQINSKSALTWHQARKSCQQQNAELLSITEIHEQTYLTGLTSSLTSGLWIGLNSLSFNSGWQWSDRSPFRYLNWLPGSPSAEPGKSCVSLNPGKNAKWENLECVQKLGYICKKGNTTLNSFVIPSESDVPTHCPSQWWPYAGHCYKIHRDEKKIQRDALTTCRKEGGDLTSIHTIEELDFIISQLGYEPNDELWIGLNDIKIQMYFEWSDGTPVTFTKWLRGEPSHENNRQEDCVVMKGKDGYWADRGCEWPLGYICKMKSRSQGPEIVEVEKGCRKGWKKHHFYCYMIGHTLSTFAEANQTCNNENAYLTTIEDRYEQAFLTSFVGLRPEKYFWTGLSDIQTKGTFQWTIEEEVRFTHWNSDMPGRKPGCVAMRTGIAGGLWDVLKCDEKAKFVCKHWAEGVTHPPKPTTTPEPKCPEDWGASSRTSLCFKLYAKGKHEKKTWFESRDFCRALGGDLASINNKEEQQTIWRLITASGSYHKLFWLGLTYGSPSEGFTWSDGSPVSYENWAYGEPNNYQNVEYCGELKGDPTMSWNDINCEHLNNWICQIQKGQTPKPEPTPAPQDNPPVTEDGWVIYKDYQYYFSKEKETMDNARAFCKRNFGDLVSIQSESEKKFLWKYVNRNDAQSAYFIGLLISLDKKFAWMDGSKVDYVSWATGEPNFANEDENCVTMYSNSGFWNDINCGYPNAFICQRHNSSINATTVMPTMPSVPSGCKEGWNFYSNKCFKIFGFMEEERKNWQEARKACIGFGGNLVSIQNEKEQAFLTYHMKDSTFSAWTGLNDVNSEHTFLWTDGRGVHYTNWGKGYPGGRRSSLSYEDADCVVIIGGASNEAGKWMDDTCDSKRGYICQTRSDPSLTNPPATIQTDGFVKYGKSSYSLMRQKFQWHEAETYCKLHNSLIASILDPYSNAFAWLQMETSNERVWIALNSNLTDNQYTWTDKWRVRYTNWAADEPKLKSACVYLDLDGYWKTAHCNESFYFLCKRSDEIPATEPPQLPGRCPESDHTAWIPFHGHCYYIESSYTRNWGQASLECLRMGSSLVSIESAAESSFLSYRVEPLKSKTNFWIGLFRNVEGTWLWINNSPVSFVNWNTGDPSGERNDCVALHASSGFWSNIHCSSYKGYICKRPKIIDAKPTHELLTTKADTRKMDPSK
# B1: PSGL-1/mIgG2b fusion protein produced in Pichia pastoris (Fc fusion, UniProt Q14242 18-320, looked up)
# chain: LQLWDTWADEAEKALGPLLARDRRQATEYEYLDYDFLPETEPPEMLRNSTDTTPLTGPGTPESTTVEPAARRSTGLDAGGAVTELTTELANMGNLSTDSAAMEIQTTQPAATEAQTTQPVPTEAQTTPLAATEAQTTRLTATEAQTTPLAATEAQTTPPAATEAQTTQPTGLEAQTTAPAAMEAQTTAPAAMEAQTTPPAAMEAQTTQTTAMEAQTTAPEATEAQTTQPTATEAQTTPLAAMEALSTEPSATEALSMEPTTKRGLFIPFSVSSVTHKGIPMAASNLSVNYPVGAPDHISVKQC
# modifications: O-linked mannose glycans (Hex2-9) and N-linked glycans from expression in P. pastoris; sites not given
# notes: extracellular domain; Homodimeric chimeric glycoprotein, about 250-300 kDa, secreted from P. pastoris GS115 by the pPICZalpha vector and purified on MabSelect SuRe; also called PSGL-1/mlgG2b; Pp/PSGL1-mIgG2b; not shown: Fc part of mouse IgG2b
# Assays:
# DC-SIGN/Fc chimera = target: T1, DC-SIGN/Fc chimera; assay: SPR (Biacore 2000), receptor amine-coupled on CM5 chip, fusion protein as analyte, apparent Kd from steady state
# Procedure: (§1) Immunoglobulin fusion proteins of PSGL-1 and AGP produced in wild type Pichia and purified, as described in Example 1, were used in experiments to assess their ability to bind to recombinant human macrophage mannose receptor (MMR), DC-SIGN/Fc chimera and mannan binding lectin (MBL) Using Biacore (real time surface plasmon resonance spectroscopy) analysis as follows.
# (§2) Analyses were performed using a Biacore 2000 instrument (Biacore, GE Healthcare, Uppsala, Sweden). Recombinant human macrophage mannose receptor (MMR), DC-SIGN/Fc chimera and mannan binding lectin (MBL) were purchased from R & D Systems and immobilized on a CM5 sensor chip using amine coupling chemistry according to the manufacturer's instructions. Briefly, activation of the surface was made with EDC/NHS 1:1, 10 μL/min for 7 minutes and the receptors were dissolved in sodium acetate buffer pH 4.5 at concentrations of 15 μg/ml for MMR, 10 μg/ml for DC-SIGN and 90 μg/ml for MBL and immobilized at 10 μl/min for 7 minutes. Deactivation of excess of reactive groups was made with ethanolamine, 20 μl/min for 7 minutes. […] Data were calculated using BIAevaluation 4.1 software (Biacore, GE Healthcare) and the apparent equilibrium dissociation constants (Kd) were calculated by plotting steady state binding levels against the analyte concentrations for several concentrations simultaneously. […]
# [1] = target: T2, Recombinant human macrophage mannose …; assay: as above
# Procedure: as §1, §2
binder,measurement,setting,value
B1,Kd,DC-SIGN/Fc chimera,0.00882 µM
same,Kd,[1],0.0767 µM
